Molecular target: the molecule itself
Assay: cross-linking; intact doxycycline-induced HT1080 cells in 1x PBS treated with 0.2 mM EGS (membrane-permeable) for 30 min at room temperature, lysed in LDS sample buffer, Western blot with anti-RFP antibody

Row | Protein | stoichiometry N
1 | TagRFP/TRIM69 V95A L96A double mutant (natural protein, human, UniProt Q86WT6 1-500, looked up, also called multimerization-defective mutant of TRIM69; not shown: TagRFP, N-terminal, kept) MEVSTNPSSNIDPGDYVEMNDSITHLPSKVVIQDITMELHCPLCNDWFRDPLMLSCGHNFCEACIQDFWRLQAKETFCPECKMLCQYNNCTFNPAADKLVEKIKKLPLLKGHPQCPEHGENLKLFSKPDGKLICFQCKDARLSVGQSKEFLQISDAVHFFTEELAIQQGQLETTLKELQTLRNMQKEAIAAHKENKLHLQQHVSMEFLKLHQFLHSKEKDILTELREEGKALNEEMELNLSQLQEQCLLAKDMLVSIQAKTEQQNSFDFLKDITTLLHSLEQGMKVLATRELISRKLNLGQYKGPIQYMVWREMQDTLCPGLSPLTLDPKTAHPNLVLSKSQTSVWHGDIKKIMPDDPERFDSSVAVLGSRGFTSGKWYWEVEVAKKTKWTVGVVRESIIRKGSCPLTPEQGFWLLRLRNQTDLKALDLPSFSLTLTNNLDKVGIYLDYEGGQLSFYNAKTMTHIYTFSNTFMEKLYPYFCPCLNDGGENKEPLHILHPQ | 2
2 | TagRFP/TRIM69 L99A single mutant (natural protein, human, UniProt Q86WT6 1-500, looked up, also called multimerization-defective mutant of TRIM69; not shown: TagRFP, N-terminal, kept) MEVSTNPSSNIDPGDYVEMNDSITHLPSKVVIQDITMELHCPLCNDWFRDPLMLSCGHNFCEACIQDFWRLQAKETFCPECKMLCQYNNCTFNPVLDKAVEKIKKLPLLKGHPQCPEHGENLKLFSKPDGKLICFQCKDARLSVGQSKEFLQISDAVHFFTEELAIQQGQLETTLKELQTLRNMQKEAIAAHKENKLHLQQHVSMEFLKLHQFLHSKEKDILTELREEGKALNEEMELNLSQLQEQCLLAKDMLVSIQAKTEQQNSFDFLKDITTLLHSLEQGMKVLATRELISRKLNLGQYKGPIQYMVWREMQDTLCPGLSPLTLDPKTAHPNLVLSKSQTSVWHGDIKKIMPDDPERFDSSVAVLGSRGFTSGKWYWEVEVAKKTKWTVGVVRESIIRKGSCPLTPEQGFWLLRLRNQTDLKALDLPSFSLTLTNNLDKVGIYLDYEGGQLSFYNAKTMTHIYTFSNTFMEKLYPYFCPCLNDGGENKEPLHILHPQ | 2
